In PMC6255864:

Legend:
[1] = target: T1, annexin-V, membrane-bound trimeric form (A5) (human), P08758; test: HS-AFM line scanning (HS-AFM-LS); line scanned across one protomer of the non-p6 trimer in the A5 p6-lattice, 2.4 ms per line; dwell-times in each orientation before rotation; conditions: remark: other sources report otherwise
T1 chain: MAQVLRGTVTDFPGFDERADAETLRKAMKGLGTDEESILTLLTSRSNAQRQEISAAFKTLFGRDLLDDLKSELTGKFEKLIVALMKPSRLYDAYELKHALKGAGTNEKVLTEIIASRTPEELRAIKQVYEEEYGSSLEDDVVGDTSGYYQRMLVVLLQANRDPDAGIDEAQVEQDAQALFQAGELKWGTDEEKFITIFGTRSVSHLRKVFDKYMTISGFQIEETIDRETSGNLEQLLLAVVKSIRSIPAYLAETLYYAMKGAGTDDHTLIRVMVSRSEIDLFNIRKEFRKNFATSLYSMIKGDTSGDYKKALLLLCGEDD

[2] = target: T1, annexin-V, membrane-bound trimeric form …; test: HS-AFM height spectroscopy (HS-AFM-HS); tip on one protomer of the rotating non-p6 trimer at the centre of the hexagonal A5 p6-lattice; dwell-times in the 0° and 60° orientations; captured at 655 kHz; conditions: remark: other sources report otherwise

average dwell-time in the 0° or 60° orientation before rotation [1]: 35 ms
peak of the distribution of state dwell-times before rotation (Gaussian 1 of 3) [1]: 13 ms
peak of the distribution of state dwell-times before rotation (Gaussian 2 of 3) [1]: 41 ms
peak of the distribution of state dwell-times before rotation (Gaussian 3 of 3) [1]: 96 ms
average dwell-time in the 0° or 60° orientation before rotation [2]: 26 ms
B1: annexin-V, membrane-bound trimeric form (A5), P08758 1-320 (natural protein)
chain: T1 chain
